Measured values published in PMC4585773, “The C-terminus hot spot region helps in the fibril formation of bacteriophage-associated hyaluronate lyase (HylP2)” (Scientific Reports, 2015).

Legend:
[1] = target: the molecule itself; experiment: SEC; Superdex 200 HR 10/300, 25 °C, pH 5, 0.3 ml/min; step: the native enzyme to high molecular weight aggregates (void volume), compared with pH 7; no seeds
[2] = target: the molecule itself; experiment: thioflavin T fluorescence kinetics; pH 5, 5 uM protein, 10 uM ThT, emission at 480 nm against time, seeded with preformed HylP2 fibrils; step: the native enzyme to fibrils

B1: bacteriophage-associated hyaluronate lyase HylP2 (enzyme, Streptococcus pyogenes bacteriophage, UniProt Q54699 1-337, looked up)
chain: MSENIPLRVQFKRMKAAEWARSDVILLESEIGFETDTGFARAGDGHNRFSDLGYISPLDYNLLTNKPNIDGLATKVETAQKLQQKADKETVYTKAESKQELDKKLNLKGGVMTGQLKFKPAATVAYSSSTGGAVNIDLSSTRGAGVVVYSDNDTSDGPLMSLRTGKETFNQSALFVDYKGTTNAVNIAMRHATTPNFSSALNITSGNENGSAMQLRGSEKALGTLKITHENPSIGADYDKNAARYPLILSKRQNGAGTAAQGIYINSTSGTTGKLLRIRNLSDDKFYVKSDGGFYAKETSQIDGNLKLKDPTANDHAATKAYVDKAISELKKLILKK
notes: hyaluronate lyase HylP2 encoded by a Streptococcus pyogenes bacteriophage, full length, residues 1-337; also called HylP2_(1-337); phage hyaluronate lyase; source: E. coli BL21 (DE3), purified
binding result [1]: binds

B2: HylP_(M179V,M181V) (enzyme, Streptococcus pyogenes bacteriophage, UniProt P15316 1-371, looked up)
chain: MTENIPLRVQFKRMSADEWARSDVILLEGEIGFETDTGFAKFGDGQNTFSKLKYLTGPKGPKGDTGLQGKTGGTGPRGPAGKPGTTDYDQLQNKPDLGAFAQKEETNSKITKLESSKADKSAVYSKAESKIELDKKLSLTGGIVTGQLQFKPNKSGIKPSSSVGGAINIDMSKSEGAAVVVYTNKDTTDGPLMILRSDKDTFDQSAQFVDYSGKTNAVNIVMRQPSAPNFSSALNITSANEGGSAMQIRGVEKALGTLKITHENPNVEAKYDENAAALSIDIVKKQKGGKGTAAQGIYINSTSGTAGKMLRIRNKNEDKFYVGPDGGFHSGANSTVAGNLTVKDPTSGKHAATKDYVDEKIAELKKLILKK
notes: hyaluronate lyase HylP of a Streptococcus pyogenes bacteriophage, residues 1-371, with M179V and M181V; made from the vector construct of full length HylP; Generated from the vector construct of m2; also called hot spot double mutant of HylP; source: E. coli BL21 (DE3), purified
binding result [2]: binds
